In patent US12097241B2, “Methods of treating kidney failure, and/or improving or stablizing renal function using modified relaxin polypeptides” (BRISTOL-MYERS SQUIBB COMPANY, priority 2017, dated 2024):
Read-outs that look alike come from different tables or passages of the source.

Experiment: In vivo pharmacokinetic (PK) studies in rats
Design: species or system Sprague-Dawley rats
Conditions: for level at time molar at 24 h: read-out: Rat PK C24; for AUC(0-inf): read-out: Rat PK AUC Total
Experimental: […] Blood samples were collected via jugular vein at different time points out to 72 hours. Blood samples were allowed to coagulate at room temperature (30-60 m) and then centrifuged (1500-2000) at 4° C. to obtain serum. After centrifugation serum samples were transferred to 96 well plates and stored at −80° C. until bioanalysis. Relaxin concentrations were measured from serum by ELISA.
Relaxin concentration-time profiles from individual animals were used for analysis. Pharmacokinetic parameters were calculated by non-compartmental methods using Phoenix WinNonlin (version 6.4) or Kinetica (version 5). Mean pharmacokinetic parameters Cmax, AUCinf, C24 and half-life were reported (Table 4). Table 4. In vivo PK data (abbreviations as in Table 3).

[1] = rats, SC dose 1.0 mg/kg, adjusted from 0.5 mpk
[2] = rat, male Sprague-Dawley rats, single SC dose 1.0 mg/kg, serum ELISA

| Structure (SMILES) | Rat PK AUC Total [1] [µM·h] | level at time molar at 24 h [1] [nM] | AUC(0-inf) [2] [µM·h] | level at time molar at 24 h [2] [nM] |
| --- | --- | --- | --- | --- |
| CC[C@H](C)[C@@H]1NC(=O)[C@H](C)NC(=O)[C@H]([C@@H](C)CC)NC(=O)[C@H](CCC(N)=O)NC(=O)[C@H](C)NC(=O)[C@H](CCCNC(=N)N)NC(=O)[C@H](C(C)C)NC(=O)[C@H](CC(C)C)NC(=O)[C@H](CCC(=O)O)NC(=O)[C@H](CCCNC(=N)N)NC(=O)CNC(=O)[C@@H](NC(=O)[C@H](CC(C)C)NC(=O)[C@H](CCCCN)NC(=O)[C@@H](NC(=O)[C@@H](NC(=O)[C@H](CCC(=O)O)NC(=O)[C@H](CCC(=O)O)NC(=O)[C@H](CCSC)NC(=O)[C@H](Cc2c[nH]c3ccccc23)NC(=O)[C@H](CO)NC(=O)[C@H](C)N)C(C)C)[C@@H](C)CC)CSSC[C@@H]2NC(=O)[C@@H](NC(=O)[C@H](CCCCN)NC(=O)[C@H](CC(N)=O)NC(=O)[C@H](C)NC(=O)[C@H](CC(C)C)NC(=O)[C@H](C)NC(=O)[C@H](CO)NC(=O)[C@H](Cc3ccc(O)cc3)NC(=O)[C@H](CC(C)C)NC(=O)[C@@H](N)Cc3ccc(C(C)=NOCCNC(=O)[C@H](CCC(=O)O)NC(=O)[C@H](CCC(=O)O)NC(=O)[C@H](CCC(=O)O)NC(=O)CNC(=O)CNC(=O)CNC(=O)CC[C@H](NC(=O)CCCCCCCCCCCCCC(=O)O)C(=O)O)cc3)CSSC[C@H](NC(=O)CNC(=O)[C@H](C(C)C)NC(=O)[C@H](Cc3c[nH]cn3)NC2=O)C(=O)N[C@@H]([C@@H](C)O)C(=O)N[C@@H](CCCCN)C(=O)N[C@@H](CCCNC(=N)N)C(=O)N[C@@H](CO)C(=O)N[C@@H](CC(C)C)C(=O)N[C@@H](C)C(=O)N[C@@H](CCCNC(=N)N)C(=O)N[C@@H](Cc2ccccc2)C(=O)N[C@H](C(=O)O)CSSC[C@@H](C(=O)NCC(=O)N[C@@H](CCSC)C(=O)N[C@@H](CO)C(=O)N[C@H](C(=O)N[C@@H](Cc2c[nH]c3ccccc23)C(=O)N[C@@H](CO)C(=O)O)[C@@H](C)O)NC1=O [AQ1-EEEGGG-Glu^γ-C14-COOH] | 2.137 | 5.2 |  |  |
| CCCCCCCCCCCCCCCC(=O)N[C@@H](CCC(=O)NCC(=O)NCC(=O)NCC(=O)N[C@@H](CCC(=O)O)C(=O)N[C@@H](CCC(=O)O)C(=O)N[C@@H](CCC(=O)O)C(=O)NCCON=C(C)c1ccc(C[C@H](N)C(=O)N[C@@H](CC(C)C)C(=O)N[C@@H](Cc2ccc(O)cc2)C(=O)N[C@@H](CO)C(=O)N[C@@H](C)C(=O)N[C@@H](CC(C)C)C(=O)N[C@@H](C)C(=O)N[C@@H](CC(N)=O)C(=O)N[C@@H](CCCCN)C(=O)N[C@H]2CSSC[C@@H]3NC(=O)CNC(=O)[C@H](C(C)C)NC(=O)[C@H](Cc4c[nH]cn4)NC(=O)[C@H](CSSC[C@H](NC(=O)[C@H](CC(C)C)NC(=O)[C@H](CCCCN)NC(=O)[C@@H](NC(=O)[C@@H](NC(=O)[C@H](CCC(=O)O)NC(=O)[C@H](CCC(=O)O)NC(=O)[C@H](CCSC)NC(=O)[C@H](Cc4c[nH]c5ccccc45)NC(=O)[C@H](CO)NC(=O)[C@H](C)N)C(C)C)[C@@H](C)CC)C(=O)NCC(=O)N[C@@H](CCCNC(=N)N)C(=O)N[C@@H](CCC(=O)O)C(=O)N[C@@H](CC(C)C)C(=O)N[C@@H](C(C)C)C(=O)N[C@@H](CCCNC(=N)N)C(=O)N[C@@H](C)C(=O)N[C@@H](CCC(N)=O)C(=O)N[C@@H]([C@@H](C)CC)C(=O)N[C@@H](C)C(=O)N[C@@H]([C@@H](C)CC)C(=O)N[C@H](C(=O)NCC(=O)N[C@@H](CCSC)C(=O)N[C@@H](CO)C(=O)N[C@H](C(=O)N[C@@H](Cc4c[nH]c5ccccc45)C(=O)N[C@@H](CO)C(=O)O)[C@@H](C)O)CSSC[C@@H](C(=O)O)NC(=O)[C@H](Cc4ccccc4)NC(=O)[C@H](CCCNC(=N)N)NC(=O)[C@H](C)NC(=O)[C@H](CC(C)C)NC(=O)[C@H](CO)NC(=O)[C@H](CCCNC(=N)N)NC(=O)[C@H](CCCCN)NC(=O)[C@H]([C@@H](C)O)NC3=O)NC2=O)cc1)C(=O)O [AQ1-EEEGGG-Glu^γ-C15-CH3] |  |  | 0.37 | 0.89 |
| CC[C@H](C)[C@@H]1NC(=O)[C@H](C)NC(=O)[C@H]([C@@H](C)CC)NC(=O)[C@H](CCC(N)=O)NC(=O)[C@H](C)NC(=O)[C@H](CCCNC(=N)N)NC(=O)[C@H](C(C)C)NC(=O)[C@H](CC(C)C)NC(=O)[C@H](CCC(=O)O)NC(=O)[C@H](CCCNC(=N)N)NC(=O)CNC(=O)[C@@H](NC(=O)[C@H](CC(C)C)NC(=O)[C@H](CCCCN)NC(=O)[C@@H](NC(=O)[C@@H](NC(=O)[C@H](CCC(=O)O)NC(=O)[C@H](CCC(=O)O)NC(=O)[C@H](CCSC)NC(=O)[C@H](Cc2c[nH]c3ccccc23)NC(=O)[C@H](CO)NC(=O)[C@H](C)N)C(C)C)[C@@H](C)CC)CSSC[C@@H]2NC(=O)[C@@H](NC(=O)[C@H](CCCCN)NC(=O)[C@H](CC(N)=O)NC(=O)[C@H](C)NC(=O)[C@H](CC(C)C)NC(=O)[C@H](C)NC(=O)[C@H](CO)NC(=O)[C@H](Cc3ccc(O)cc3)NC(=O)[C@H](CC(C)C)NC(=O)[C@@H](N)Cc3ccc(C(C)=NOCCNC(=O)[C@H](CCC(=O)O)NC(=O)[C@H](CCC(=O)O)NC(=O)[C@H](CCC(=O)O)NC(=O)CNC(=O)CNC(=O)CNC(=O)CC[C@H](NC(=O)CCCCCCCCCCCCCCC(=O)O)C(=O)O)cc3)CSSC[C@H](NC(=O)CNC(=O)[C@H](C(C)C)NC(=O)[C@H](Cc3c[nH]cn3)NC2=O)C(=O)N[C@@H]([C@@H](C)O)C(=O)N[C@@H](CCCCN)C(=O)N[C@@H](CCCNC(=N)N)C(=O)N[C@@H](CO)C(=O)N[C@@H](CC(C)C)C(=O)N[C@@H](C)C(=O)N[C@@H](CCCNC(=N)N)C(=O)N[C@@H](Cc2ccccc2)C(=O)N[C@H](C(=O)O)CSSC[C@@H](C(=O)NCC(=O)N[C@@H](CCSC)C(=O)N[C@@H](CO)C(=O)N[C@H](C(=O)N[C@@H](Cc2c[nH]c3ccccc23)C(=O)N[C@@H](CO)C(=O)O)[C@@H](C)O)NC1=O [AQ1-EEEGGG-Glu^γ-C15-COOH] |  |  | 3.55 | 22 |
| CC[C@H](C)[C@@H]1NC(=O)[C@H](C)NC(=O)[C@H]([C@@H](C)CC)NC(=O)[C@H](CCC(N)=O)NC(=O)[C@H](C)NC(=O)[C@H](CCCNC(=N)N)NC(=O)[C@H](C(C)C)NC(=O)[C@H](CC(C)C)NC(=O)[C@H](CCC(=O)O)NC(=O)[C@H](CCCNC(=N)N)NC(=O)CNC(=O)[C@@H](NC(=O)[C@H](CC(C)C)NC(=O)[C@H](CCCCN)NC(=O)[C@@H](NC(=O)[C@@H](NC(=O)[C@H](CCC(=O)O)NC(=O)[C@H](CCC(=O)O)NC(=O)[C@H](CCSC)NC(=O)[C@H](Cc2c[nH]c3ccccc23)NC(=O)[C@H](CO)NC(=O)[C@H](C)N)C(C)C)[C@@H](C)CC)CSSC[C@@H]2NC(=O)[C@@H](NC(=O)[C@H](CCCCN)NC(=O)[C@H](CC(N)=O)NC(=O)[C@H](C)NC(=O)[C@H](CC(C)C)NC(=O)[C@H](C)NC(=O)[C@H](CO)NC(=O)[C@H](Cc3ccc(O)cc3)NC(=O)[C@H](CC(C)C)NC(=O)[C@@H](N)Cc3ccc(C(C)=NOCCNC(=O)CNC(=O)[C@H](CCC(=O)O)NC(=O)[C@@H](NC(=O)CNC(=O)[C@H](CO)NC(=O)[C@H](CO)NC(=O)CNC(=O)[C@H](CCC(=O)O)NC(=O)CNC(=O)[C@@H](NC(=O)CC[C@H](NC(=O)CCCCCCCCCCCCC(=O)O)C(=O)O)[C@@H](C)O)[C@@H](C)O)cc3)CSSC[C@H](NC(=O)CNC(=O)[C@H](C(C)C)NC(=O)[C@H](Cc3c[nH]cn3)NC2=O)C(=O)N[C@@H]([C@@H](C)O)C(=O)N[C@@H](CCCCN)C(=O)N[C@@H](CCCNC(=N)N)C(=O)N[C@@H](CO)C(=O)N[C@@H](CC(C)C)C(=O)N[C@@H](C)C(=O)N[C@@H](CCCNC(=N)N)C(=O)N[C@@H](Cc2ccccc2)C(=O)N[C@H](C(=O)O)CSSC[C@@H](C(=O)NCC(=O)N[C@@H](CCSC)C(=O)N[C@@H](CO)C(=O)N[C@H](C(=O)N[C@@H](Cc2c[nH]c3ccccc23)C(=O)N[C@@H](CO)C(=O)O)[C@@H](C)O)NC1=O [AQ1-GETGSSGEGT-Glu^γ-C13-COOH] |  |  | 1.11 | 0.28 |
| CC[C@H](C)[C@@H]1NC(=O)[C@H](C)NC(=O)[C@H]([C@@H](C)CC)NC(=O)[C@H](CCC(N)=O)NC(=O)[C@H](C)NC(=O)[C@H](CCCNC(=N)N)NC(=O)[C@H](C(C)C)NC(=O)[C@H](CC(C)C)NC(=O)[C@H](CCC(=O)O)NC(=O)[C@H](CCCNC(=N)N)NC(=O)CNC(=O)[C@@H](NC(=O)[C@H](CC(C)C)NC(=O)[C@H](CCCCN)NC(=O)[C@@H](NC(=O)[C@@H](NC(=O)[C@H](CCC(=O)O)NC(=O)[C@H](CCC(=O)O)NC(=O)[C@H](CCSC)NC(=O)[C@H](Cc2c[nH]c3ccccc23)NC(=O)[C@H](CO)NC(=O)[C@H](C)N)C(C)C)[C@@H](C)CC)CSSC[C@@H]2NC(=O)[C@@H](NC(=O)[C@H](CCCCN)NC(=O)[C@H](CC(N)=O)NC(=O)[C@H](C)NC(=O)[C@H](CC(C)C)NC(=O)[C@H](C)NC(=O)[C@H](CO)NC(=O)[C@H](Cc3ccc(O)cc3)NC(=O)[C@H](CC(C)C)NC(=O)[C@@H](N)Cc3ccc(C(C)=NOCCNC(=O)CNC(=O)CNC(=O)CNC(=O)[C@H](CCC(=O)O)NC(=O)[C@H](CCC(=O)O)NC(=O)[C@H](CCC(=O)O)NC(=O)CC[C@H](NC(=O)CCCCCCCCCCCCC(=O)O)C(=O)O)cc3)CSSC[C@H](NC(=O)CNC(=O)[C@H](C(C)C)NC(=O)[C@H](Cc3c[nH]cn3)NC2=O)C(=O)N[C@@H]([C@@H](C)O)C(=O)N[C@@H](CCCCN)C(=O)N[C@@H](CCCNC(=N)N)C(=O)N[C@@H](CO)C(=O)N[C@@H](CC(C)C)C(=O)N[C@@H](C)C(=O)N[C@@H](CCCNC(=N)N)C(=O)N[C@@H](Cc2ccccc2)C(=O)N[C@H](C(=O)O)CSSC[C@@H](C(=O)NCC(=O)N[C@@H](CCSC)C(=O)N[C@@H](CO)C(=O)N[C@H](C(=O)N[C@@H](Cc2c[nH]c3ccccc23)C(=O)N[C@@H](CO)C(=O)O)[C@@H](C)O)NC1=O [AQ1-GGGEEE-Glu^γ-C13-COOH] |  |  | 0.866 | 0.18 |
